Source: article PMC10117725, “From an Hsp90 - binding protein to a peptide drug” (microLife, 2022)

Biological target: T1, Hsp90α (Homo sapiens, UniProt P07900)
T1 construct: purchased Abcam
Format: binding
Conditions: dot blot, 2 µg blotted on membrane, 20 µg recombinant Hsp90α at 4°C overnight, α-Hsp90α immunodetection
Method: Two µg of each peptide was blotted (dot blot) directly on PDV nitrocellulose membrane and blocked with ROTI®Block (Carl Roth, Germany). After washing, the membrane was then incubated with 20 μg of recombinant Hsp90α (Abcam)/Lpl1-his protein at 4°C overnight. In case of interaction studies with Hsp90α, α-Hsp90α (produced in mouse, Abcam) was used as the primary antibody and for interaction studies with Lpl1-his, Anti-6X His tag antibody (also produced in mouse, Sigma-Aldrich, Germany) was used. Alkaline phosphatase conjugated goat-α-mouse IgG (Sigma-Aldrich, Germany) served as the secondary antibody. Detection was done using BCIP®/NBT solution (Sigma, Germany). Lpl1-his was isolated and purified as described in our previous paper (Tribelli et al. [2020]).

B1: Lpl1: model Lpl lipoprotein of S. aureus, parent protein of the peptides (protein)
chain: CGKGNETKEDSKEEQIKKSFAITLDMYPIKNLEDLYDKEGYRDSEFKKGDKGMWTIYTDFAKSNKPGELDDEGMVLNLDRNTRTAKGHYFVTTFYRNGKLPDEKNYKIEMKNNKIILLDEVKDDKLKQKIENFKFFGQYANLKELRKYNNGDVSINENVPSYDVEYKMSNKDEIVKELRSRYNISTEKSPILKMHIDGDLKGSSVGYRKLEIDFSKRENSKLSVIEFLSYKPAKK
modifications: left off: His tag, end not stated, kept
notes: model Lpl lipoprotein of S. aureus, parent protein of the peptides
Question: How did the “Interaction with Hsp90α” value turn out when B1 was run?
Answer: Yes
